Results as given in patent publication US20050143285A1.

Tests used:
[1] = target: T1, Aplysia californica acetylcholine binding protein (AChBP) (Aplysia californica)
T1 chain: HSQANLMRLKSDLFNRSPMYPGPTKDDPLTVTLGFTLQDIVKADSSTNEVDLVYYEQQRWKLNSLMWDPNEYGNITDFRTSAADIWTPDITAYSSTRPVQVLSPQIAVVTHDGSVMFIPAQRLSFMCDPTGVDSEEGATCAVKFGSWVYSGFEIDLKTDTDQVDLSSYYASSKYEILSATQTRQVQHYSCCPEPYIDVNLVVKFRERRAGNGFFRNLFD

[2] = target: T2, Lymnaea stagnalis acetylcholine binding protein (AChBP) (Lymnaea stagnalis), P58154
[3] = target: T1, Aplysia californica acetylcholine …
[4] = target: T1, Aplysia californica acetylcholine …
[5] = target: T2, Lymnaea stagnalis acetylcholine binding …; assay: stopped-flow spectrofluorimetry
[6] = target: T2, Lymnaea stagnalis acetylcholine binding …; assay: ratio of Kd on Lymnaea AChBP to Kd on Aplysia AChBP
[7] = target: T1, Aplysia californica acetylcholine …; assay: stopped-flow spectrofluorimetry, excitation 280 nm, emission above 305 nm
[8] = target: T2, Lymnaea stagnalis acetylcholine binding …; assay: as above

T2 sequence (P58154 20-229): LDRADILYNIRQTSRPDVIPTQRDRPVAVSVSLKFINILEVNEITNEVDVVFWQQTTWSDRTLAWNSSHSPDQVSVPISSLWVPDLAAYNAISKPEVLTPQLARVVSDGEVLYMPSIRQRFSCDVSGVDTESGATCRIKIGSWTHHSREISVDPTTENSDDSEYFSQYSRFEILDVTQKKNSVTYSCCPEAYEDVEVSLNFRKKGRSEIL

In the case of GCCSDPRCAWRC (modifications not checked) [α-conotoxin ImI, P50983 5-16], the Kd [1] is reported as 0.00088 µM, the Kd [2] is reported as 14 µM and the koff [3] is reported as 0.01 s⁻¹. The fold greater affinity than for L-AChBP [4] was > 10000 fold, the koff [5] was 19 s⁻¹ and the Kd Ratio L/A [6] was 16000. It also gave a kon [7] of 1.6e+07 M⁻¹ s⁻¹ and a kon [8] of 1.4e+06 M⁻¹ s⁻¹.
